From US20120100142A1 (VANDERBILT UNIVERSITY, published 2012) come the findings set out here.

In test [1] the target is Recombinant A/South Carolina/1/1918 virus HA (influenza A/South Carolina/1/1918 …, UniProt Q9WFX3 18-520).
Test [2] addresses T1, 1918 HA displayed on 1918 virus-like particles, reconstituted 1918 virus or transfected cells (influenza A/South Carolina/1/1918 …, UniProt Q9WFX3 18-566). Nature of the test: cell-based or functional assay.
The target in test [3] is T1, 1918 HA displayed on 1918 virus-like …. Nature of the test: cell-based or functional assay. This is another data set of the same source.
Test [4] shares this target.

The term Kd denotes the free concentration of one partner at which half of the binding sites on the other are occupied at equilibrium, for simple one-to-one binding. Broadly, the koff is the first-order rate constant of dissociation. A word on the kon: it is the rate constant with which the complex forms. One may read the EC50 (read off the curve) as the concentration that produces a half-maximal response. A low value points to higher potency in that assay.

Recombinant A/South Carolina/1/1918 virus HA, sequence (Q9WFX3 18-520 limits assumed): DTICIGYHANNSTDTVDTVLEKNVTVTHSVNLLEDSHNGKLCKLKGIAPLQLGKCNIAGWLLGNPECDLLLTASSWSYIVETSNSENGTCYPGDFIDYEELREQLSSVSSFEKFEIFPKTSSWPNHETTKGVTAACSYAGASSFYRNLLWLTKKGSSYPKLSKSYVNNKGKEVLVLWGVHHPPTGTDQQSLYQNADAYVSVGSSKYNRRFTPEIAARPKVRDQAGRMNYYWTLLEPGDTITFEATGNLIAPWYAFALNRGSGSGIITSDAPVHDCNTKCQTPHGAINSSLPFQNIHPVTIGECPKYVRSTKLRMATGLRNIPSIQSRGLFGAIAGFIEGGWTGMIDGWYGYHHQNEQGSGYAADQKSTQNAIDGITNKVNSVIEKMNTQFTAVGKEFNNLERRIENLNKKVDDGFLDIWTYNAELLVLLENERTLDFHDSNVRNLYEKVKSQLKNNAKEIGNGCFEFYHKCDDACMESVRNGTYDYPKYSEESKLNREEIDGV
T1 sequence (Q9WFX3 18-566): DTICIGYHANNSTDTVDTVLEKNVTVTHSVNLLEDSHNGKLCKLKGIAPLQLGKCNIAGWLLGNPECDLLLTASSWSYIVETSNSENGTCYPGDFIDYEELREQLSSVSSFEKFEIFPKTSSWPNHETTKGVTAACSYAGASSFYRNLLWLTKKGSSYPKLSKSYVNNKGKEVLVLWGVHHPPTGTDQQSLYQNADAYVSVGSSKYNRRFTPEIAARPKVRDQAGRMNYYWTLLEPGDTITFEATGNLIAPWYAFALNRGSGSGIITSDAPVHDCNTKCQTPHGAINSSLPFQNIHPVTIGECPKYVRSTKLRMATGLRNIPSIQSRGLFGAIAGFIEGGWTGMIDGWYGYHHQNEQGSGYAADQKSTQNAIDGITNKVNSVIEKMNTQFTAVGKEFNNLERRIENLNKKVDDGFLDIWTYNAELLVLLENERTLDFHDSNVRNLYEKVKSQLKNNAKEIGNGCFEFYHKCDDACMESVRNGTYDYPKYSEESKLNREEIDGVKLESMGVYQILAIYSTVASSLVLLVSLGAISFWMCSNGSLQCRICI

B1: mAb 4D20 (antibody, V domains shown)
VH: EVQLVESGPVLVKPTETLTVTCTVSGFSVDNDRMGVSWIRQPPGKALEWLAHIFSNDEKSYSTSLRSRLTISKDTSKRQVVLSMTDMDPVDTATYYCARAPSEYAAMDVWGQGTMVTVS
VL: SYVLTQPPSVSVAPGETATVTCGGNNIGSKSVHWYQQKPGQAPVVVIYYDGDRPSGIPERFSGSNSGDTATLTISRVEAGDEADYYCLVWDYTSVHYVFGTGTKVTVLG
Consider B1, for which, in test [1], the dissociation constant Kd came to 140 pM, the koff was determined as 1e-05 s⁻¹ and the kon came out at 170000 M⁻¹ s⁻¹. In test [2], the “HAI, specific activity of indicated mAb” value was determined as 0.04 µg/mL. The “Specific HAI activity” value in test [3] is 0.04 µg/mL.

B2: mAb 1I20 (antibody, V domains shown)
VH: EVQLVESGGGVVQPGGSLRLSCIASAFNLGIFGMHWVRQAPGKGLEWVAFIRYDGGKTFYADSVKGRFTISRDNSKNTLYLQMNSLRTEDTALYYCARDATADYYGPGSYPNWLDPWGQGTLVTVS
VL: DIRLTQSPATLSVSPGERATLSCRASHSVSRNLAWYQQKPGRAPRLLVYDTSSRATGIPARFSGSGSGTEFTLTISSLQSEDFAVYYCQQYNNWPRTFGQGTKVDIK
Turning to B2, in test [1], the Kd was 48 pM, the koff amounted to 1.4e-05 s⁻¹ and the kon was found to be 290000 M⁻¹ s⁻¹. Further, in test [2], the “HAI, specific activity of indicated mAb” value stood at 0.28 µg/mL. Moreover, in test [3], the “Specific HAI activity” value came out at 0.16 µg/mL.

B3: mAb 2B12 (antibody, V domains shown)
VH: EVQLQESGPGLVKPSQTLSLTCNVSGGSITGDYKWSWIRQPPGKGLEWIGHIHSTGTTYYNPSLRSRITISMDTSKNNLSLRLTSVTAADTAVYYCASHTLTSGHYPRDFDFWGQGTLVTVSS
VL: SYVLTQPPSVSGTPGQRVIISCSGYSSNIGSNTVNWYQQFPGTAPRLLIYANNQRPPGVPDRFSGSKSGTSASLAISGLQSDDESDYYCAAWDDSLNGHWVFGGGTKLTVLG
In the case of B3, in test [1], the Kd was determined as 6200 pM, the koff came to 0.00012 s⁻¹ and the kon was found to be 18000 M⁻¹ s⁻¹. Further, the “EC50 (read off the curve)” value in test [4] was around 0.02 µg/mL. In addition, in test [2], the “HAI, specific activity of indicated mAb” value worked out at 0.32 µg/mL. Also, in test [3], the “Specific HAI activity” value worked out at 0.31 µg/mL.

B4: mAb 1F1 (antibody, V domains shown)
VH: EVQLVQSGGGVVQPRRSLRLSCAASGFTFSSYAMHWVRQAPGKGLEWVAVISYDGRNKYYADSVKGRFTVSRDNSKNTLYLQMNSLRAEDTSVYYCARELLMDYYDHIGYSPGPTWGQGTLVTVSS
VL: QPVLTQPPSASGSPGQRVTISCSGSSSNIGSYTVNWYQQLPGTAPKLLIYSLNQRPSGVPDRFSGSKSGTSASLAISGLQSEDEAVYYCAAWDDSLSAHVVFGGGTKLTVLG
B4: in test [1], the Kd stood at 5400 pM, the koff came to 0.00017 s⁻¹ and the kon stood at 31000 M⁻¹ s⁻¹. Further, in test [2], the “HAI, specific activity of indicated mAb” value is 0.04 µg/mL. The “Specific HAI activity” value in test [3] was found to be 0.08 µg/mL.

B5: mAb 2D1 (antibody, V domains shown)
VH: EVQLVESGPALVKPTQTLTLTCSFSGFSLSTSGMSVSWIRQPPGKALEWLALIDWDDDTYYITYSSSLKTRLTISKDTSKSQVVLTMTNMDPVDTATYYCARTLRVSGDYVRDFDLWGRGTLVTVS
VL: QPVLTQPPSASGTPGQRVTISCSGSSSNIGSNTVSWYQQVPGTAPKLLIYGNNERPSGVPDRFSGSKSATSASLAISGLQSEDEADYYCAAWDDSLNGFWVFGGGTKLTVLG
On to B5, for which, in test [1], the Kd is 250 pM, the koff was 1e-05 s⁻¹ and the kon was determined as 39000 M⁻¹ s⁻¹. In addition, the “HAI, specific activity of indicated mAb” value in test [2] came to 0.025 µg/mL. Further, the “Specific HAI activity” value in test [3] is 0.01 µg/mL.
